In article PMC4583379:

Experiments:
[1] = anti-PilA western, membrane extracts, exponential phase; settings: glycan lost; control: wild type NEM316
[2] = anti-PilA western, cell-wall extracts, stationary phase; settings: glycan lost; control: wild type NEM316
[3] = anti-PilA western, cell-wall extracts, exponential phase; settings: glycan lost; control: wild type NEM316
[4] = anti-PilA western, supernatants of nisin-induced secreted PilA; settings: glycan lost; control: wild-type PilAΔCWA
[5] = flow cytometry with anti-PilA antiserum; settings: glycan lost; control: wild type NEM316

B1: PilA (Gbs1478), PI-2a pilus tip adhesin: N427Q (protein)
parent chain: MRKYQKFSKILTLSLFCLSQIPLNTNVLGESTVPENGAKGKLVVKKTDDQNKPLSKATFVLKTTAHPESKIEKVTAELTGEATFDNLIPGDYTLSEETAPEGYKKTNQTWQVKVESNGKTTIQNSGDKNSTIGQNHEELDKQYPPTGIYEDTKESYKLEHVKGSVPNGKSEAKAVNPYSSEGEHIREIPEGTLSKRISEVGDLAHNKYKIELTVSGKTIVKPVDKQKPLDVVFVLDNSNSMNNDGPNFQRHNKAKKAAEALGTAVKDILGANSDNRVALVTYGSDIFDGRSVDVVKGFKEDDKYYGLQTKFTIQTENYSHKQLTNNAEEIIKRIPTEAPRAKWGSTTNGLTPEQQKQYYLSKVGETFTMKAFMEADDILSQVDRNSQKIIVHITDGVPTRSYAINNFKLGASYESQFEQMKKNGYLNKSNFLLTDKPEDIKGNGESYFLFPLDSYQTQIISGNLQKLHYLDLNLNYPKGTIYRNGPVREHGTPTKLYINSLKQKNYDIFNFGIDISAFRQVYNEDYKKNQDGTFQKLKEEAFELSDGEITELMKSFSSKPEYYTPIVTSSDASNNEILSKIQQQFEKVLTKENSIVNGTIEDPMGDKINLQLGNGQTLQPSDYTLQGNDGSIMKDSIATGGPNNDGGILKGVKLEYIKNKLYVRGLNLGEGQKVTLTYDVKLDDSFISNKFYDTNGRTTLNPKSEDPNTLRDFPIPKIRDVREYPTITIKNEKKLGEIEFTKVDKDNNKLLLKGATFELQEFNEDYKLYLPIKNNNSKVVTGENGKISYKDLKDGKYQLIEAVSPKDYQKITNKPILTFEVVKGSIQNIIAVNKQISEYHEEGDKHLITNTHIPPKGIIPMTGGKGILSFILIGGSMMSIAGGIYIWKRYKKSSDISREKD
no change: expression_or_secretion [1] | stability_or_folding [2] | expression_or_secretion [3] | stability_or_folding [4] | expression_or_secretion [5]

B2: PilA (Gbs1478), PI-2a pilus tip adhesin: N597Q (protein)
parent chain: MRKYQKFSKILTLSLFCLSQIPLNTNVLGESTVPENGAKGKLVVKKTDDQNKPLSKATFVLKTTAHPESKIEKVTAELTGEATFDNLIPGDYTLSEETAPEGYKKTNQTWQVKVESNGKTTIQNSGDKNSTIGQNHEELDKQYPPTGIYEDTKESYKLEHVKGSVPNGKSEAKAVNPYSSEGEHIREIPEGTLSKRISEVGDLAHNKYKIELTVSGKTIVKPVDKQKPLDVVFVLDNSNSMNNDGPNFQRHNKAKKAAEALGTAVKDILGANSDNRVALVTYGSDIFDGRSVDVVKGFKEDDKYYGLQTKFTIQTENYSHKQLTNNAEEIIKRIPTEAPRAKWGSTTNGLTPEQQKQYYLSKVGETFTMKAFMEADDILSQVDRNSQKIIVHITDGVPTRSYAINNFKLGASYESQFEQMKKNGYLNKSNFLLTDKPEDIKGNGESYFLFPLDSYQTQIISGNLQKLHYLDLNLNYPKGTIYRNGPVREHGTPTKLYINSLKQKNYDIFNFGIDISAFRQVYNEDYKKNQDGTFQKLKEEAFELSDGEITELMKSFSSKPEYYTPIVTSSDASNNEILSKIQQQFEKVLTKENSIVNGTIEDPMGDKINLQLGNGQTLQPSDYTLQGNDGSIMKDSIATGGPNNDGGILKGVKLEYIKNKLYVRGLNLGEGQKVTLTYDVKLDDSFISNKFYDTNGRTTLNPKSEDPNTLRDFPIPKIRDVREYPTITIKNEKKLGEIEFTKVDKDNNKLLLKGATFELQEFNEDYKLYLPIKNNNSKVVTGENGKISYKDLKDGKYQLIEAVSPKDYQKITNKPILTFEVVKGSIQNIIAVNKQISEYHEEGDKHLITNTHIPPKGIIPMTGGKGILSFILIGGSMMSIAGGIYIWKRYKKSSDISREKD
no change: expression_or_secretion [1] | stability_or_folding [2] | expression_or_secretion [3] | stability_or_folding [4] | expression_or_secretion [5]

B3: PilA (Gbs1478), PI-2a pilus tip adhesin: N427Q-N597Q (protein)
parent chain: MRKYQKFSKILTLSLFCLSQIPLNTNVLGESTVPENGAKGKLVVKKTDDQNKPLSKATFVLKTTAHPESKIEKVTAELTGEATFDNLIPGDYTLSEETAPEGYKKTNQTWQVKVESNGKTTIQNSGDKNSTIGQNHEELDKQYPPTGIYEDTKESYKLEHVKGSVPNGKSEAKAVNPYSSEGEHIREIPEGTLSKRISEVGDLAHNKYKIELTVSGKTIVKPVDKQKPLDVVFVLDNSNSMNNDGPNFQRHNKAKKAAEALGTAVKDILGANSDNRVALVTYGSDIFDGRSVDVVKGFKEDDKYYGLQTKFTIQTENYSHKQLTNNAEEIIKRIPTEAPRAKWGSTTNGLTPEQQKQYYLSKVGETFTMKAFMEADDILSQVDRNSQKIIVHITDGVPTRSYAINNFKLGASYESQFEQMKKNGYLNKSNFLLTDKPEDIKGNGESYFLFPLDSYQTQIISGNLQKLHYLDLNLNYPKGTIYRNGPVREHGTPTKLYINSLKQKNYDIFNFGIDISAFRQVYNEDYKKNQDGTFQKLKEEAFELSDGEITELMKSFSSKPEYYTPIVTSSDASNNEILSKIQQQFEKVLTKENSIVNGTIEDPMGDKINLQLGNGQTLQPSDYTLQGNDGSIMKDSIATGGPNNDGGILKGVKLEYIKNKLYVRGLNLGEGQKVTLTYDVKLDDSFISNKFYDTNGRTTLNPKSEDPNTLRDFPIPKIRDVREYPTITIKNEKKLGEIEFTKVDKDNNKLLLKGATFELQEFNEDYKLYLPIKNNNSKVVTGENGKISYKDLKDGKYQLIEAVSPKDYQKITNKPILTFEVVKGSIQNIIAVNKQISEYHEEGDKHLITNTHIPPKGIIPMTGGKGILSFILIGGSMMSIAGGIYIWKRYKKSSDISREKD
no change: expression_or_secretion [1] | expression_or_secretion [3] | expression_or_secretion [5]
